Measurements from paper PMC5289745 (Biochemistry, 2015).

B1: PcrG-GB1-His6 (natural protein)
chain: MGDMNEYTEDTLRATVQAAELAIRDSEERGRLLAEMWQGLGLAADAGELLFQAPERELARAAEEELLAELRRMRSSQPTQGEQGTRPRRPTPMRGLLIGSENLYFQ
B2: PcrG^9–76-GB1-His6 (domain or fragment)
chain: MEDTLRATVQAAELAIRDSEERGRLLAEMWQGLGLAADAGELLFQAPERELARAAEEELLAELRRMRSSGSENLYFQ

Molecular target: PcrV (residues 25–294) (P. aeruginosa, UniProt G3XD49 25-294)
Experiment: SPR

| Binder | Kd [nM] |
| --- | --- |
| B1 | 26 |
| B2 | 24 |
